Legend:
[1] = target: MHC class II molecules on MHC class II-expressing Raji cells (human); experiment: transfer cell ELISA, Raji cells; 62.5 ng/ml; plate row D
[2] = target: MHC class II molecules on MHC class II-expressing Raji cells (human); experiment: transfer cell ELISA, Raji cells; 0.977 ng/ml; plate row C
[3] = target: MHC class II molecules on MHC class II-expressing Raji cells (human); experiment: transfer cell ELISA, Raji cells; 31.25 ng/ml; plate row D
[4] = target: MHC class II molecules on MHC class II-expressing Raji cells (human); experiment: transfer cell ELISA, Raji cells; 7.813 ng/ml; plate row C
[5] = target: MHC class II molecules on MHC class II-expressing Raji cells (human); experiment: direct ELISA, plate-immobilised Raji cells; 5% BSA, 2,500 cells; 500 ng/ml
[6] = target: MHC class II molecules on MHC class II-expressing Raji cells (human); experiment: direct ELISA, plate-immobilised Raji cells; 5% BSA, 5,000 cells; 125 ng/ml
[7] = target: MHC class II molecules on MHC class II-expressing Raji cells (human); experiment: direct ELISA, plate-immobilised Raji cells; 5% BSA, 10,000 cells; 250 ng/ml
[8] = target: MHC class II molecules on MHC class II-expressing Raji cells (human); experiment: direct ELISA, plate-immobilised Raji cells; 5% BSA, 10,000 cells; 500 ng/ml
[9] = target: MHC class II molecules on MHC class II-expressing Raji cells (human); experiment: direct ELISA, plate-immobilised Raji cells; 5% BSA, 5,000 cells; 62.5 ng/ml
[10] = target: MHC class II molecules on MHC class II-expressing Raji cells (human); experiment: direct ELISA, plate-immobilised Raji cells; 5% BSA, 10,000 cells; 1000 ng/ml
[11] = target: MHC class II molecules on MHC class II-expressing Raji cells (human); experiment: direct ELISA, plate-immobilised Raji cells; 5% BSA, 2,500 cells; 31.25 ng/ml
[12] = target: MHC class II molecules on MHC class II-expressing Raji cells (human); experiment: direct ELISA, plate-immobilised Raji cells; 5% BSA, 5,000 cells; 31.25 ng/ml
[13] = target: MHC class II molecules on MHC class II-expressing Raji cells (human); experiment: direct ELISA, plate-immobilised Raji cells; 10% FBS, 10,000 cells; 15.625 ng/ml
[14] = target: MHC class II molecules on MHC class II-expressing Raji cells (human); experiment: transfer cell ELISA, Raji cells; 125 ng/ml
[15] = target: MHC class II molecules on MHC class II-expressing Raji cells (human); experiment: transfer cell ELISA, Raji cells; 0.977 ng/ml
[16] = target: MHC class II molecules on MHC class II-expressing Raji cells (human); experiment: transfer cell ELISA, Raji cells; 1.953 ng/ml
[17] = target: MHC class II molecules on MHC class II-expressing Raji cells (human); experiment: transfer cell ELISA, Raji cells; 31.25 ng/ml
[18] = target: MHC class II molecules on MHC class II-expressing Raji cells (human); experiment: BLI; immobilised sample, Raji cells in solution; dark control of FIG. 24
[19] = target: MHC class II molecules on MHC class II-expressing Raji cells (human); experiment: BLI; immobilised sample, Raji cells in solution; pH 7.0 control of FIG. 20
[20] = target: MHC class II molecules on MHC class II-expressing Raji cells (human); experiment: BLI; immobilised sample, Raji cells in solution; pH 7.0 control of FIG. 21
[21] = target: MHC class II molecules on MHC class II-expressing Raji cells (human); experiment: direct ELISA, plate-immobilised Raji cells; 3% gelatin, 2,500 cells; 250 ng/ml
[22] = target: MHC class II molecules on MHC class II-expressing Raji cells (human); experiment: direct ELISA, plate-immobilised Raji cells; 3% gelatin, 5,000 cells; 250 ng/ml
[23] = target: MHC class II molecules on MHC class II-expressing Raji cells (human); experiment: direct ELISA, plate-immobilised Raji cells; 0.5% Casein, 2,500 cells; 250 ng/ml
[24] = target: MHC class II molecules on MHC class II-expressing Raji cells (human); experiment: direct ELISA, plate-immobilised Raji cells; 3% gelatin, 10,000 cells; 125 ng/ml
[25] = target: MHC class II molecules on MHC class II-expressing Raji cells (human); experiment: direct ELISA, plate-immobilised Raji cells; 3% gelatin, 2,500 cells; 1000 ng/ml
[26] = target: MHC class II molecules on MHC class II-expressing Raji cells (human); experiment: direct ELISA, plate-immobilised Raji cells; 0.5% Casein, 2,500 cells; 62.5 ng/ml
[27] = target: MHC class II molecules on MHC class II-expressing Raji cells (human); experiment: direct ELISA, plate-immobilised Raji cells; 3% gelatin, 2,500 cells; 31.25 ng/ml
[28] = target: MHC class II molecules on MHC class II-expressing Raji cells (human); experiment: direct ELISA, plate-immobilised Raji cells; 0.5% Casein, 10,000 cells; 1000 ng/ml
[29] = target: MHC class II molecules on MHC class II-expressing Raji cells (human); experiment: direct ELISA, plate-immobilised Raji cells; 0.5% Casein, 10,000 cells; 62.5 ng/ml
[30] = target: MHC class II molecules on MHC class II-expressing Raji cells (human); experiment: direct ELISA, plate-immobilised Raji cells; 3% gelatin, 10,000 cells; 31.25 ng/ml
[31] = target: MHC class II molecules on MHC class II-expressing Raji cells (human); experiment: direct ELISA, plate-immobilised Raji cells; 3% gelatin, 5,000 cells; 15.625 ng/ml
[32] = target: MHC class II molecules on MHC class II-expressing Raji cells (human); experiment: direct ELISA, plate-immobilised Raji cells; 0.5% Casein, 10,000 cells; 31.25 ng/ml
[33] = target: MHC class II molecules on MHC class II-expressing Raji cells (human); experiment: direct ELISA, plate-immobilised Raji cells; 3% gelatin, 10,000 cells; 15.625 ng/ml

Substance: IMP321 treated with Peptide-N-Glycosidase F (PNGase F) (Fc fusion)
- OD (ELISA signal) [1]: 0.076 OD
- OD (ELISA signal) [2]: 0.01 OD
- OD (ELISA signal) [3]: 0.049 OD
- OD (ELISA signal) [4]: 0.02 OD
- OD (ELISA signal) [5]: 1.32 OD
- OD (ELISA signal) [6]: 0.476 OD
- OD (ELISA signal) [7]: 0.91 OD
- OD (ELISA signal) [8]: 1.3 OD
- OD (ELISA signal) [9]: 0.303 OD
- OD (ELISA signal) [10]: 1.77 OD
- OD (ELISA signal) [11]: 0.304 OD
- OD (ELISA signal) [12]: 0.297 OD
- OD (ELISA signal) [13]: 0.333 OD

Substance: IMP321, recombinant soluble human LAG-3Ig fusion protein (Fc fusion)
- OD (ELISA signal) [14]: 0.475 OD
- OD (ELISA signal) [15]: 0.018 OD
- OD (ELISA signal) [16]: 0.026 OD
- OD (ELISA signal) [17]: 0.159 OD
- Bioactivity (binding) [18]: 100%
- Bioactivity (binding) [19]: 126%
- Bioactivity (binding) [20]: 95%
- OD (ELISA signal) [21]: 1.95 OD
- OD (ELISA signal) [22]: 2.1 OD
- OD (ELISA signal) [23]: 0.231 OD
- OD (ELISA signal) [24]: 0.688 OD
- OD (ELISA signal) [25]: 2.6 OD
- OD (ELISA signal) [26]: 0.135 OD
- OD (ELISA signal) [27]: 0.303 OD
- OD (ELISA signal) [28]: 0.16 OD
- OD (ELISA signal) [29]: 0.142 OD
- OD (ELISA signal) [30]: 0.389 OD
- OD (ELISA signal) [31]: 0.316 OD
- OD (ELISA signal) [32]: 0.18 OD
- OD (ELISA signal) [33]: 0.361 OD

From US20190361034A1
